Measured values from the supplement of paper PMC7877785.
± gives the uncertainty stated by the source.

Test: self-splicing fitness, log relative to wild type (ln ratio); higher = more splicing; Tetrahymena group I intron in knt gene, E. coli kanamycin selection, DiMSum; sequences stand for … in CUCUCU…GGAGGGAAAAGUUAUCAGGCAUGCACCUGGUAGCUAGUCUUUAAACCAAUAGAUUGCAUCGGUUUAAAAGGCAAGACCGUCAAAUUGCGGGAAAGGGGUCAACAGCCGUUCAGUACCAAGUCUCAGGGGAAACUUUGAGAUGGCCUUGCAAAGGGUAUGGUAAUAAGCUGACGGACAUGGUCCUAACCACGCAGCCAAGUCCUAAGUCAACAGAUCUUCUGUUGAUAUGGAUGCAGUUCACAGACUAAAUGUCGGUCGGGGAAGAUGUAUUCUUCUCAUAAGAUAUAGUCGGACCUCUCCUUAAUGGGAGCUAGCGGAUGAAGUGAUGCAACACUGGAGCCGCUGGGAACUAAUUUGUAUGCGAAAGUAUAUUGAUUAGUUUUGGAGUACUCGUGGUCG
Procedure, shortened: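 Library with all eight P1ex-region intron nucleotides randomised, intron inside the knt kanamycin-resistance gene on pET-22b(+), in E. coli BL21(DE3). Cells grew overnight at 37°C or 30°C on LB agar with or without 25 μg/mL kanamycin (plus 100 μg/mL carbenicillin, 50 μM IPTG, 0.2% rhamnose), in six replicate transformations. Pooled colonies were amplicon-sequenced on Illumina HiSeq 2500. DiMSum fitness is the error-weighted combination of wild-type-normalised replicate fold changes, kanamycin versus none.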

Sequence | self-splicing fitness (ln) (30 °C) | self-splicing fitness (ln) (37 °C)
GGCGAGCAAUAUUACGCAGU | -1.29 ± 0.43 | -0.76 ± 0.39
CAUGAGCAAUAUUACGCCCA | -1.49 ± 0.42 | –
CCUGAGCAAUAUUACGAGCA | -3.49 ± 0.27 | -3.47 ± 0.3
GCCUAGCAAUAUUACGACCU | -1.35 ± 0.23 | -1.02 ± 0.27
AUAAAGCAAUAUUACGCAAC | -1.38 ± 0.13 | -1.34 ± 0.21
CUGGAGCAAUAUUACGUAUA | -3.12 ± 0.36 | -2.48 ± 0.3
UGUGAGCAAUAUUACGUCGU | -2.1 ± 0.3 | –
UAAAAGCAAUAUUACGCGAA | -2.23 ± 0.12 | -0.719 ± 0.12
CCUGAGCAAUAUUACGAGAU | -1.86 ± 0.16 | -2.09 ± 0.23
CCGCAGCAAUAUUACGACUU | -3.51 ± 0.35 | -1.68 ± 0.32
GGGGAGCAAUAUUACGAUCA | -1.45 ± 0.18 | -0.807 ± 0.19
GCGCAGCAAUAUUACGUUUC | -1.35 ± 0.057 | -0.727 ± 0.074
UUCGAGCAAUAUUACGAGUA | -1.57 ± 0.15 | -1.43 ± 0.18
GUUGAGCAAUAUUACGGAUU | -2.6 ± 0.34 | -1.56 ± 0.21
AACCAGCAAUAUUACGGCGG | -0.585 ± 0.059 | -0.164 ± 0.078
CGAAAGCAAUAUUACGCACA | -0.831 ± 0.11 | -0.358 ± 0.16
CGACAGCAAUAUUACGUAUC | – | -1.59 ± 0.19
CAGUAGCAAUAUUACGUCCG | -0.245 ± 0.24 | 1.29 ± 0.42
AGCUAGCAAUAUUACGCGAA | -3.09 ± 0.23 | -1.24 ± 0.22
UGACAGCAAUAUUACGCGGU | -3.56 ± 0.19 | -2.68 ± 0.19
CCAGAGCAAUAUUACGGGCA | -2.92 ± 0.28 | -2.64 ± 0.38
AAAAAGCAAUAUUACGCUUC | -3.38 ± 0.3 | –
AGAUAGCAAUAUUACGAGAG | -3.7 ± 0.29 | -2.37 ± 0.25
CCUCAGCAAUAUUACGUUGA | -3.03 ± 0.14 | -2.28 ± 0.14
GUUAAGCAAUAUUACGAGGA | -1.5 ± 0.23 | -1.15 ± 0.39
GCGAAGCAAUAUUACGCUGU | -1.5 ± 0.39 | –

Sequence | self-splicing fitness (ln) (30 °C) | self-splicing fitness (ln) (37 °C)
GCCUAGCAAUAUUACGCGCU | -2.19 ± 0.13 | -0.269 ± 0.11
ACUCAGCAAUAUUACGACAC | -1.44 ± 0.12 | -0.127 ± 0.14
AAUAAGCAAUAUUACGCCGA | -0.856 ± 0.14 | -0.632 ± 0.16
CUCUAGCAAUAUUACGGGGA | -1.69 ± 0.17 | -1.62 ± 0.14
CCCUAGCAAUAUUACGAAGG | -4.03 ± 0.21 | -2.71 ± 0.23
CCCCAGCAAUAUUACGUCGA | -4.09 ± 0.23 | -2.27 ± 0.15
GGGCAGCAAUAUUACGCCUG | -1.27 ± 0.14 | 0.02 ± 0.13
AUCGAGCAAUAUUACGAAUA | -3.09 ± 0.44 | -2.21 ± 0.35
GUACAGCAAUAUUACGUUCC | -3.44 ± 0.15 | -3.48 ± 0.42
AUACAGCAAUAUUACGCUUU | -3.04 ± 0.18 | -1.64 ± 0.15
UGUAAGCAAUAUUACGAUAG | -1.44 ± 0.25 | -1.87 ± 0.29
GUCUAGCAAUAUUACGAGUU | -2.13 ± 0.12 | -1.32 ± 0.1
UCGCAGCAAUAUUACGAGGU | -3.14 ± 0.25 | -2.85 ± 0.19
CCAAAGCAAUAUUACGACGA | -3.11 ± 0.29 | -0.0538 ± 0.26
AGGAAGCAAUAUUACGAAUU | -2.58 ± 0.13 | -1.45 ± 0.15
AUCCAGCAAUAUUACGCGGG | -3.37 ± 0.13 | -2.42 ± 0.17
GGGCAGCAAUAUUACGAGGA | – | -2.97 ± 0.47
CUUGAGCAAUAUUACGAUGU | -2.24 ± 0.14 | -3.43 ± 0.26
UCCCAGCAAUAUUACGAAUG | -2.98 ± 0.15 | -2.61 ± 0.17
ACGUAGCAAUAUUACGUCGA | -3.67 ± 0.3 | -2.72 ± 0.24
AUCUAGCAAUAUUACGGAUU | -4.46 ± 0.32 | -2.38 ± 0.23
UAUUAGCAAUAUUACGGGAG | -3.18 ± 0.16 | -2.16 ± 0.12
CGGCAGCAAUAUUACGAUGG | -0.549 ± 0.083 | -0.741 ± 0.093
UUGCAGCAAUAUUACGAGAU | -3.6 ± 0.34 | -2.64 ± 0.36
UUAGAGCAAUAUUACGUUAC | – | -2.17 ± 0.46
GUUAAGCAAUAUUACGCAAG | -1.84 ± 0.18 | -1.71 ± 0.23

Sequence | self-splicing fitness (ln) (30 °C) | self-splicing fitness (ln) (37 °C)
ACACAGCAAUAUUACGGUUA | -1.16 ± 0.059 | -0.485 ± 0.061
CUACAGCAAUAUUACGUGCC | -2.73 ± 0.26 | -2.39 ± 0.38
GCUCAGCAAUAUUACGUACG | -1.72 ± 0.11 | -0.485 ± 0.09
ACCCAGCAAUAUUACGUAUA | -2.2 ± 0.092 | -1.2 ± 0.085
GGGCAGCAAUAUUACGAAUG | -2.93 ± 0.17 | -2.12 ± 0.23
AGUUAGCAAUAUUACGUAGC | -3.86 ± 0.26 | -0.803 ± 0.14
ACGCAGCAAUAUUACGUACC | -1.46 ± 0.24 | -0.295 ± 0.26
AGAGAGCAAUAUUACGUCCC | -2.37 ± 0.33 | -1.25 ± 0.37
CGCAAGCAAUAUUACGUAAU | -3.89 ± 0.2 | -2.14 ± 0.17
GCUUAGCAAUAUUACGUAGG | -1.51 ± 0.11 | -0.916 ± 0.14
CUUAAGCAAUAUUACGCGUU | -4.44 ± 0.23 | -3.85 ± 0.25
UGAGAGCAAUAUUACGGACA | -1.66 ± 0.18 | -0.674 ± 0.2
UUAAAGCAAUAUUACGACGU | -0.129 ± 0.069 | 0.0726 ± 0.1
CCUUAGCAAUAUUACGUCGU | -3.7 ± 0.25 | -2.13 ± 0.22
UUUUAGCAAUAUUACGCUCU | -0.0349 ± 0.23 | -0.135 ± 0.18
UCUAAGCAAUAUUACGAACU | -2.55 ± 0.11 | -2.26 ± 0.15
UUGCAGCAAUAUUACGCAGU | – | -2.71 ± 0.39
AUCCAGCAAUAUUACGACAA | -0.977 ± 0.095 | -0.337 ± 0.096
AAGCAGCAAUAUUACGAGAU | -3.14 ± 0.17 | -1.61 ± 0.14
CUCUAGCAAUAUUACGUUGA | -2.49 ± 0.27 | -3.81 ± 0.36
GUUUAGCAAUAUUACGGUCC | -0.925 ± 0.11 | -0.109 ± 0.12
AUUGAGCAAUAUUACGGCGU | -0.734 ± 0.11 | 0.573 ± 0.17
UAUCAGCAAUAUUACGUAAG | -2.16 ± 0.16 | -1.09 ± 0.17
UACUAGCAAUAUUACGCAAG | -2.98 ± 0.33 | -1.72 ± 0.24
UGUAAGCAAUAUUACGGGCA | -0.98 ± 0.09 | 0.521 ± 0.1
